From patent US20190225691A1 (SHANGHAI HENLIUS BIOTECH, published 2019)

Legend:
human PD-L1 ECD-His [1] = target: T1, human PD-L1 ECD-His (human, UniProt Q9NZQ7 19-238); assay: BLI, ratio of KD to ref-1
T1 construct: extracellular domain; Analyte in all SPR and BLI runs; also called hPD-L1_ECD-His; hPD-L1 ECD-His; not shown: His tag
Method: (§1) Briefly, black 96-well plate was prepared with columns containing 200 μL/well of reagents required for determination of affinity. In general, Octet SA sensors were first placed in wells containing 1×Kinetics Buffer (PBS, 0.1% BSA, 0.02% Tween-20, pH 7.4) for 180 seconds to establish a baseline. […] Sensors were then regenerated by 3×5 second incubations in Regeneration Buffer (10 mM Glycine, pH 1.5) followed by a 5 second incubation in 1×Kinetics Buffer each time. Regeneration was repeated before measurement of each association/dissociation cycle. Sensors were then placed in fresh 1×Kinetics Buffer for 180 seconds to establish a baseline. Association was then measured by incubating the sensors for 5 minutes in wells containing hPD-L1-His followed by transferring to wells containing 1×Kinetics Buffer for 10 minutes to measure dissociation. Kinetics (ka, kd, and […] were measured by global fitting four association/dissociation cycles of data obtained from 1:3 serial dilutions of hPD-L1-His from 38.28 nM to 1.42 nM (one association/dissociation cycle for one concentration) with a 1:1 Langmuir binding model. All data were analyzed with Octet Data Analysis Software v.9.0 and representative of two independent experiments performed in duplicate.
(§2) All the data are representative of two independent experiments performed in duplicate.

[2] = target: T2, recombinant cynomolgus monkey PD-L1_ECD Fc-fusion protein (Sino Biological Inc.) (cynomolgus monkey, UniProt G7PSE7 19-238); assay: ELISA: cynomolgus monkey PD-L1_ECD/Fc coated (9 ng/well), peroxidase-labeled goat anti-human IgG F(ab)'2, TMB, OD450
T2 construct: Bought
T2 sequence (G7PSE7 entry or part of it limits assumed): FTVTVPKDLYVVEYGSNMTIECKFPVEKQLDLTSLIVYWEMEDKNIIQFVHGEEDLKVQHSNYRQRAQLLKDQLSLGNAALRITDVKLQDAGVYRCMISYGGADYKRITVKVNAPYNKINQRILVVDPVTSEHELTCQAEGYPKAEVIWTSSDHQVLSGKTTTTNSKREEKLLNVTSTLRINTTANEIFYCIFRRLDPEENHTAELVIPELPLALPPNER
Method: The recombinant cynomolgus monkey PD-L1_ECD Fc-fusion proteins were purchased from Sino Biological Inc. PD-L1_ECD/Fc (9 ng per well) were immobilized onto 96-well assay plat by incubating overnight at 4° C. Nonspecific binding sites were blocked using 5% skim milk in PBS for one hour at room temperature. After washing plates three times with PBST, indicated concentrations of anti-PD-L1 antibodies and HLX01 (negative control) were incubated with the immobilized proteins for one hour at room temperature. The plates were washed three times with PBST and then incubated for one hour at room temperature with peroxidase-labeled goat anti-human IgG F(ab)′2 (Jackson ImmunoResearch Laboratories) diluted 1/10,000 in PBS. After washing, plates were developed using TMB (eBioscience). The absorbance was read at the wavelength of 450 nm by Varioskan LUX microplate reader (Thermo Scientific).
HLX01 (anti-CD20 mAb) was used as the negative control.

human PD-L1 ECD-His [3] = target: T1, human PD-L1 ECD-His; assay: BLI Octet RED96, biotinylated antibody on SA sensor, hPD-L1-His analyte, 1:1 fit
Method: as §1, §2

human PD-L1 ECD-His [4] = target: T1, human PD-L1 ECD-His; assay: SPR, ratio of KD to ref-1
human PD-L1 ECD-His [5] = target: T1, human PD-L1 ECD-His; assay: SPR, hPD-L1-His, PL3 variants
[6] = target: T3, human PD-L1 on cells (PHA-activated human T cells); PD-L1-transfected CHO-S cells; A375 melanoma cells; … (human, UniProt Q9NZQ7 19-290); assay: flow cytometry blocking assay: PD-L1 expressing CHO-S cells incubated with antibody, then biotin-labeled PD-1-Fc and streptavidin-PE; MFI of bound PD-1
T3 construct: whole, on cells; also called PD-L1 expressing T cells; PD-L1 expressing CHO-S cells
T3 sequence (Q9NZQ7 19-290): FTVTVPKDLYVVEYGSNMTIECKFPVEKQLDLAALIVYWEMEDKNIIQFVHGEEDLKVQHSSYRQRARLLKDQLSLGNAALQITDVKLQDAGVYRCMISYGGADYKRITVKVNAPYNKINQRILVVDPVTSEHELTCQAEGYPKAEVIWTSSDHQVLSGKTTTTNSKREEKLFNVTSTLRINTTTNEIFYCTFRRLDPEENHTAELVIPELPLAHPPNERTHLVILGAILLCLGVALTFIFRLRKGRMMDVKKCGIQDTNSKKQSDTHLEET
Method: PD-L1 expressing CHO-S cells were suspended in FACS buffer (PBS with 4% FBS). Various concentrations of tested antibodies were added to the cell suspension (3.5E5 cells/well) and incubated at 4° C. for 30 minutes. […] The cells were washed and then stained with streptavidin-PE at 4° C. for 30 minutes. Flow cytometric analyses were performed using the Cytomics FC 500 (Beckman Coulter Inc.).
Anti-PD-L1 reference antibody and Avastin were used as the positive and negative control, respectively.

human PD-L1 ECD-His [7] = target: T1, human PD-L1 ECD-His; assay: SPR, 25 C, antibody captured by anti-human IgG Fc, hPD-L1_ECD-His analyte, 1:1 fit
Method: Experiments were carried out at 25° C., and measurements were made with serial dilutions of hPD-L1_ECD-His from 55.4 nM to 11.1 nM passing over the captured antibodies in HBS-P+ buffer supplemented with 0.1% (w/v) BSA with a flow rate of […]. All data were analyzed with the evaluation software and curves were fit with a 1:1 Langmuir binding model. Data are representative of two independent experiments performed in duplicate.

[8] = target: T3, human PD-L1 on cells (PHA-activated …); assay: flow cytometry on PHA-activated human CD3+ T cells, FITC-labeled anti-human IgG Fcγ, MFI
Method: Human T cells were isolated from PBMC using MagniSortTM Human T Cell Enrichment Kit (eBioscience). Isolated T cells were activated by 5 μg/mL phytohemagglutinin (PHA) for 3 days to stimulate the PD-L1 expression. Activated T cells were collected and incubated in FACS buffer (PBS with 2% FBS) with human Fc blocker (eBioscience) for 20 minutes at 4° C. Binding of anti-PD-L1 monoclonal antibody was assessed by incubating the activated T cells with the serial-diluted antibodies in FACS buffer. The cells were washed with flow buffer and the binding was detected with a FITC-labeled rabbit anti-human IgG FcγAb. Cells were also stained with mouse anti-human CD3 PE-Cy7 (eBioscience) for gating CD3-positive T cells. Flow cytometric analyses were performed using the Cytomics FC 500 (Beckman Coulter Inc.).

T1 sequence (Q9NZQ7 19-238): as the sequence (G7PSE7 entry or part of it limits assumed) above, with T33A, S34A, N62S, Q68R, R82Q, L173F, A185T, I192T, L215H counted along it

| Binder | Improvement over ref-1 (human PD-L1 ECD-His [4]) | Kd (human PD-L1 ECD-His [5]) | koff (human PD-L1 ECD-His [5]) | kon (human PD-L1 ECD-His [5]) | further results |
| --- | --- | --- | --- | --- | --- |
| PL3#7 mtIgG1 (antibody, V domains shown, Antibody was biotinylated (NHS-PEG4-biotin, sites not specified) for the Octet assay of Table 11., N297A mutant human IgG1) VH: QVQLVQSGAEVKKPGSSVKVSCKASGGTFSSYPISWVRQAPGQGLEWIGRIIPILGIANYAQKFQGRVTITADKSTSTAYMELSSLRSEDTAVYYCARSRDGYAFGAFDIWGQGTLVTVSS VL: QSVVTQPPPVSGAPGQRVTISCTGSSSNIGAGYDVHWYQQLPGTAPKLLIYGNSNRPSGVPDRFSGSKSGTSASLAITGLQAEDEADYYCQTYDSSLSARVVFGGGTKLTVLG | – | – | – | – | Improvement over ref-1 (human PD-L1 ECD-His [1]): 2.26 fold; EC50 (read off the curve) [2]: ~0.04 µg/mL; Kd (human PD-L1 ECD-His [3]): 1.09 nM; koff (human PD-L1 ECD-His [3]): 0.000305 s⁻¹; kon (human PD-L1 ECD-His [3]): 298000 M⁻¹ s⁻¹ |
| PL3#7 IgG2 (antibody, V domains shown, Human IgG2) VH: QVQLVQSGAEVKKPGSSVKVSCKASGGTFSSYPISWVRQAPGQGLEWIGRIIPILGIANYAQKFQGRVTITADKSTSTAYMELSSLRSEDTAVYYCARSRDGYAFGAFDIWGQGTLVTVSS VL: QSVVTQPPPVSGAPGQRVTISCTGSSSNIGAGYDVHWYQQLPGTAPKLLIYGNSNRPSGVPDRFSGSKSGTSASLAITGLQAEDEADYYCQTYDSSLSARVVFGGGTKLTVL | 1.81 fold | 0.349 nM | 0.000327 s⁻¹ | 995000 M⁻¹ s⁻¹ | – |
| PL15 (full-length, N297A mutant human IgG1) (antibody, V domains shown) VH: QVQLVQSGAEVKKPGSSVKVSCKASGGTFSSYTISWVRQAPGQGLEWMGRIIPILGIANYAQKFQGRVTITADKSTSTAYMELSSLRSEDTAVYYCARSRDGYSFGAFDIWGQGTLVTVSS VL: QSVLTQPPSVSGAPGQRVTISCTGYSSNIGAGYDVHWYQHLPGTAPKLLIYGNSNRPSGVPDRFSGSKSGTSASLAITGLQAEDEADYYCQSYDNSLSVSVFGGGTKLTVLG | – | – | – | – | IC50 (read off the curve) [6]: ~0.06 µg/mL; Kd (human PD-L1 ECD-His [7]): 15 nM; koff (human PD-L1 ECD-His [7]): 0.00933 s⁻¹; kon (human PD-L1 ECD-His [7]): 645000 M⁻¹ s⁻¹; EC50 (read off the curve) [8]: ~0.03 µg/mL |
| PL3#7 IgG4 (antibody, V domains shown, Human IgG4) VH: QVQLVQSGAEVKKPGSSVKVSCKASGGTFSSYPISWVRQAPGQGLEWIGRIIPILGIANYAQKFQGRVTITADKSTSTAYMELSSLRSEDTAVYYCARSRDGYAFGAFDIWGQGTLVTVSS VL: QSVVTQPPPVSGAPGQRVTISCTGSSSNIGAGYDVHWYQQLPGTAPKLLIYGNSNRPSGVPDRFSGSKSGTSASLAITGLQAEDEADYYCQTYDSSLSARVVFGGGTKLTVL | 1.97 fold | 0.321 nM | 0.000362 s⁻¹ | 1.14e+06 M⁻¹ s⁻¹ | – |
| PL3#7 IgG1 (antibody, V domains shown, Human IgG1) VH: QVQLVQSGAEVKKPGSSVKVSCKASGGTFSSYPISWVRQAPGQGLEWIGRIIPILGIANYAQKFQGRVTITADKSTSTAYMELSSLRSEDTAVYYCARSRDGYAFGAFDIWGQGTLVTVSS VL: QSVVTQPPPVSGAPGQRVTISCTGSSSNIGAGYDVHWYQQLPGTAPKLLIYGNSNRPSGVPDRFSGSKSGTSASLAITGLQAEDEADYYCQTYDSSLSARVVFGGGTKLTVL | 1.38 fold | 0.457 nM | 0.000444 s⁻¹ | 997000 M⁻¹ s⁻¹ | – |
| PL3 IgG1 (antibody, V domains shown) VH: QVQLVQSGAEVKKPGSSVKVSCKASGGTFSSYTISWVRQAPGQGLEWMGRIIPILGIANYAQKFQGRVTITADKSTSTAYMELSSLRSEDTAVYYCARSRDGYSFGAFDIWGQGTLVTVSS VL: QSVVTQPPPVSGAPGQRVTISCTGSSSNIGAGYDVHWYQQLPGTAPKLLIYGNSNRPSGVPDRFSGSKSGTSASLAITGLQAEDEADYYCQSYDSSLSAPVVFGGGTKLTVL | 0.12 fold | 5.46 nM | 0.00291 s⁻¹ | 542000 M⁻¹ s⁻¹ | – |
| PL3#1 mtIgG1 (N297A) (antibody, V domains shown, N297A mutant human IgG1) VH: QVQLVQSGAEVKKPGSSVKVSCKASGGTFSSYRISWVRQAPGQGLEWMGRIIPILGIANYAQKFQGRVTITADKSTSTAYMELSSLRSEDTAVYYCARSRDGYSVGAFDSWGQGTLVTVSS VL: QSVVTQPPPVSGAPGQRVTISCTGSSSNIGAGYDVHWYQQLPGTAPKLLIYGNSRRPSGVPDRFSGSKSGTSASLAITGLQAEDEADYYCQTYDSSLSRPVVFGGGTKLTVL | 1.73 fold | 0.366 nM | 0.000395 s⁻¹ | 1.1e+06 M⁻¹ s⁻¹ | – |
| PL3#1 IgG2 (antibody, V domains shown, Human IgG2) VH: QVQLVQSGAEVKKPGSSVKVSCKASGGTFSSYRISWVRQAPGQGLEWMGRIIPILGIANYAQKFQGRVTITADKSTSTAYMELSSLRSEDTAVYYCARSRDGYSVGAFDSWGQGTLVTVSS VL: QSVVTQPPPVSGAPGQRVTISCTGSSSNIGAGYDVHWYQQLPGTAPKLLIYGNSRRPSGVPDRFSGSKSGTSASLAITGLQAEDEADYYCQTYDSSLSRPVVFGGGTKLTVL | 0.85 fold | 0.74 nM | 0.00067 s⁻¹ | 931000 M⁻¹ s⁻¹ | – |
| PL3 IgG2 (antibody, V domains shown, Human IgG2) VH: QVQLVQSGAEVKKPGSSVKVSCKASGGTFSSYTISWVRQAPGQGLEWMGRIIPILGIANYAQKFQGRVTITADKSTSTAYMELSSLRSEDTAVYYCARSRDGYSFGAFDIWGQGTLVTVSS VL: QSVVTQPPPVSGAPGQRVTISCTGSSSNIGAGYDVHWYQQLPGTAPKLLIYGNSNRPSGVPDRFSGSKSGTSASLAITGLQAEDEADYYCQSYDSSLSAPVVFGGGTKLTVL | 0.1 fold | 6.64 nM | 0.00277 s⁻¹ | 417000 M⁻¹ s⁻¹ | – |
| PL6 (full-length, N297A mutant human IgG1) (antibody, V domains shown) VH: EVQLVQSGAEVKKPGSSVKVSCKASGGTFSSYTINWVRQAPGQGLEWVGKIIPILGIADYAQMFKGRVTITADKFTSTVYMELNSLRSEDTAVYYCARGGYVGYLNAFDIWGQGTMVTVSS VL: QSVVTQPPSVSGAPGQRVTISCTGSSSNIGAGYDVHWYQQLPGTAPKLLIYGNSNRPSGVPDRFSGSKSGTSASLAITGLQAEDEADYYCQSYDSSLSGGVFGGGTKLTVLG | – | – | – | – | IC50 (read off the curve) [6]: ~0.03 µg/mL; Kd (human PD-L1 ECD-His [7]): 11.2 nM; koff (human PD-L1 ECD-His [7]): 0.0122 s⁻¹; kon (human PD-L1 ECD-His [7]): 1.05e+06 M⁻¹ s⁻¹ |
| PL8 (full-length, N297A mutant human IgG1) (antibody, V domains shown) VH: EVQLVQSGAEVKKPGSSVKVSCKASGGTFSSYAISWVRQAPGQGLEWMGRIIPIFGTANYAQKFQGRVTITADESTSTAYMELSSLRSEDTAVYYCAREGVLDAFDIWGQGTMVTVSS VL: LSSELTQDPAVSVALGQTVRITCQGDSLRSYYVSWYQQKPGQAPVLVLYGKNNRPSGIPDRFSGSSSGSTASLTITGAQAEDEADYYCNSRDSTGNLLRVFGGGTKLTVLG | – | – | – | – | Kd (human PD-L1 ECD-His [7]): 8.85 nM; koff (human PD-L1 ECD-His [7]): 0.00348 s⁻¹; kon (human PD-L1 ECD-His [7]): 382000 M⁻¹ s⁻¹ |
